We go through seven molecules from US20240350586A1 (TSINGHUA UNIVERSITY, published 2024).

To fix the notation:
B3: HA-CCT2 (chaperonin subunit CCT2, wild type, N-terminal HA tag) (other)
chain: ASLSLAPVNIFKAGADEERAETARLTSFIGAIAIGDLVKSTLGPKGMDKILLSSGRDASLMVTNDGATILKNIGVDNPAAKVLVDMSRVQDDEVGDGTTSVTVLAAELLREAESLIAKKIHPQTIIAGWREATKAAREALLSSAVDHGSDEVKFRQDLMNIAGTTLSSKLLTHHKDHFTKLAVEAVLRLKGSGNLEAIHIIKKLGGSLADSYLDEGFLLDKKIGVNQPKRIENAKILIANTGMDTDKIKIFGSRVRVDSTAKVAEIEHAEKEKMKEKVERILKHGINCFINRQLIYNYPEQLFGAAGVMAIEHADFAGVERLALVTGGEIASTFDHPELVKLGSCKLIEEVMIGEDKLIHFSGVALGEACTIVLRGATQQILDEAERSLHDALCVLAQTVKDSRTVYGGGCSEMLMAHAVTQLANRTPGKEAVAMESYAKALRMLPTIIADNAGYDSADLVAQLRAAHSEGNTTAGLDMREGTIGDMAILGITESFQVKRQVLLSAAEAAEVILRVDNIIKAAPRKRVPDHHPC
notes: Expressed in HEK293T or U2OS from pFUGW-HA-CCT2; CCT genes were amplified from HEK293T cDNA; also called WT CCT2; HA-CCT2 WT; not shown: N-terminal HA tag

For assay [1], the target named is T1, His-T7-LC3C (purified protein) (UniProt Q9BXW4 1-147).
T1 construct: Purified on Ni sepharose; used in peptide and protein pull-downs; also called T7-LC3C protein; purified LC3C; not shown: His and T7 tags
T1 sequence (Q9BXW4 whole entry): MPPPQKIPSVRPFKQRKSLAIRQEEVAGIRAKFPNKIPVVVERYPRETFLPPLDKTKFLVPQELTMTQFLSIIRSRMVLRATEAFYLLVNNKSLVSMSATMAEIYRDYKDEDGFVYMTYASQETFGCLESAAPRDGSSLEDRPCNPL
The experiment in a line: peptide pull-down, immunoblot. From the text: The data are representative of three independent experiments. […] The cells were permeabilized with digitonin before fixation. [0136] (G) Quantification of LC3 around Q103-HTT IB (mean±SEM) as shown in (F). […] [0137] […] The cells were permeabilized with digitonin before immunoblot analysis. LE, long exposure; SE, short exposure. [0138] (I) Quantification of normalized Q103-HTT (mean±SEM) in (H). […] [0139] […] The VLIR motif VIL is highlighted in red. [0140] […] The data are representative of three independent experiments. [0141] […] The cells were permeabilized with digitonin before fixation. [0142] (M) Quantification of LC3 around IBs (mean±SEM) as shown in (L). […] [0143] […] [0144] (O) Quantification of normalized Q103-HTT (mean±SEM) in (N).
After washing, 2×SDS loading buffer was added to the beads, and immunoblot was performed as described previously.

Assay [2] concerns the target T2, His-mRuby2-CCT2 (purified) (human, UniProt P78371 2-535).
T2 construct: 4 uM added to FUS P525L granules in vitro; also called CCT2 protein; not shown: His tag and mRuby2
T2 sequence: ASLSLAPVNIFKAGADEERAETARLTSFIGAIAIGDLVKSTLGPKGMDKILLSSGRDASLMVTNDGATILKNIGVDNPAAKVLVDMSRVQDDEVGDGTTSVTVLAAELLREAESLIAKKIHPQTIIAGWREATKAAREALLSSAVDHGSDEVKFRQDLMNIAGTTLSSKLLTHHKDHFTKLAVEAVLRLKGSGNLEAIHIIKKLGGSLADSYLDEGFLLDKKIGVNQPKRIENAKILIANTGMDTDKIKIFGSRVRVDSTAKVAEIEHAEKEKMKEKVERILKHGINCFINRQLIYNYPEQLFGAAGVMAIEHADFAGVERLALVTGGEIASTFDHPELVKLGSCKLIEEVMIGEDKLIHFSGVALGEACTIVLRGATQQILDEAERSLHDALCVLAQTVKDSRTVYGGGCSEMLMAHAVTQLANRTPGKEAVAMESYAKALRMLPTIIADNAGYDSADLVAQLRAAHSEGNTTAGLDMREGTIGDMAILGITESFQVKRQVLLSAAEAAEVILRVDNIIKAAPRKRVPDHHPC
The experiment in a line: recruitment of 4 uM mRuby2-CCT2 to FUS P525L granules in vitro, imaging. From the text: [0179] […] [0180] […] [0181] […] [0182] […] [0184] […] [0185] […] [0186]

The target in assay [3] is T7-LC3B (UniProt Q9GZQ8 1-120). The experiment in a line: co-IP of HA-CCT2 with T7-ATG8s in HEK293T. From the text: The cells were permeabilized with digitonin before fixation. [0136] (G) Quantification of LC3 around Q103-HTT IB (mean±SEM) as shown in (F). […] [0137] […] The cells were permeabilized with digitonin before immunoblot analysis. LE, long exposure; SE, short exposure. [0138] (I) Quantification of normalized Q103-HTT (mean±SEM) in (H). […] [0139] […] The VLIR motif VIL is highlighted in red. [0140] […] The data are representative of three independent experiments. [0141] […] The cells were permeabilized with digitonin before fixation. [0142] (M) Quantification of LC3 around IBs (mean±SEM) as shown in (L). […] [0143] […] [0144] (O) Quantification of normalized Q103-HTT (mean±SEM) in (N).
Co-immunoprecipitation was performed essentially as described before. In brief, 24 h after transfection, the cells were collected and lysed on ice for 30 min in co-IP buffer (50 mM Tris/HCl pH 7.4, 150 mM NaCl, 1 mM EDTA, 0.5% NP40) with protease inhibitor mixture, and the lysates were cleared by centrifugation. The resulting supernatants were incubated with indicated agarose or magnetic beads and rotated at 4° C. for 3 h. The agarose was washed five times with co-IP buffer. As for the BFP-tagged Q103, the supernatants were incubated with rabbit anti-BFP antibodies and Protein A/G PLUS-Agarose according to the manufacturers' protocol. […]

The target in assay [4] is T3, T7-LC3C (expressed in cells) (UniProt Q9BXW4 1-126).
T3 construct: Expressed from pCDNA3-T7-LC3C; not shown: T7 tag
T3 sequence (Q9BXW4 1-126): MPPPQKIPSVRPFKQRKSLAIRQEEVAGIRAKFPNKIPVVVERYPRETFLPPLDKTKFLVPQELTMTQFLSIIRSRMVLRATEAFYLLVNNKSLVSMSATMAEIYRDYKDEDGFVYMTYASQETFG
The experiment in a line: co-IP with T7-LC3C in HEK293T. Here is the method:
(§1) The data are representative of three independent experiments. [0146] […] The data are representative of three independent experiments. [0147] […] The data are representative of three independent experiments. [0148] […] The interaction of the peptides with T7-GABARAP or T7-GABARAPL1 proteins was analyzed by in vitro pull-down. The data are representative of three independent experiments. [0149] […] The data are representative of three independent experiments. [0150] […] [0151] (K) Quantification of Q103-HTT-GFP area/DAPI area (mean±SEM) as shown in [0152] (J). 48 h represents IB accumulation stage and 72 h represents clearance stage. P values are indicated (two-tailed t test, >20 views from three independent experiments). [0153] […] The data are representative of three independent experiments. [0154] […] The data are representative of three independent experiments. [0155] […] The data are representative of three independent experiments.
(§2) Co-immunoprecipitation was performed essentially as described before. In brief, 24 h after transfection, the cells were collected and lysed on ice for 30 min in co-IP buffer (50 mM Tris/HCl pH 7.4, 150 mM NaCl, 1 mM EDTA, 0.5% NP40) with protease inhibitor mixture, and the lysates were cleared by centrifugation. The resulting supernatants were incubated with indicated agarose or magnetic beads and rotated at 4° C. for 3 h. The agarose was washed five times with co-IP buffer.

For assay [5], the target named is T1, His-T7-LC3C (purified protein). The experiment in a line: in vitro pull-down of purified proteins, immunoblot.
Assay [6] has as its target B3. The experiment in a line: co-IP of HA-CCT2 with T7-GABARAP in HEK293T. Here is the method: as §1, §2

B1: CCT2 domain3 peptide 7 mVL(I)L (peptide)
peptide: ILGITESFQVKRQAAASAAEAAEAAARVDN
notes: Synthetic peptide coupled to agarose beads; VLL and VIL replaced by alanines; also called peptide 7 mutant (mVL (I) L)
For B1, the binding result in assay [1] is on record as “no binding”.

B2: GFP-FUS P525L (purified, after TEV digestion of MBP-TEV-GFP-FUS P525L) (other, UniProt P35637 1-526, looked up)
chain: MASNDYTQQATQSYGAYPTQPGQGYSQQSSQPYGQQSYSGYSQSTDTSGYGQSSYSSYGQSQNTGYGTQSTPQGYGSTGGYGSSQSSQSSYGQQSSYPGYGQQPAPSSTSGSYGSSSQSSSYGQPQSGSYSQQPSYGGQQQSYGQQQSYNPPQGYGQQNQYNSSSGGGGGGGGGGNYGQDQSSMSSGGGSGGGYGNQDQSGGGGSGGYGQQDRGGRGRGGSGGGGGGGGGGYNRSSGGYEPRGRGGGRGGRGGMGGSDRGGFNKFGGPRDQGSRHDSEQDNSDNNTIFVQGLGENVTIESVADYFKQIGIIKTNKKTGQPMINLYTDRETGKLKGEATVSFDDPPSAKAAIDWFDGKEFSGNPIKVSFATRRADFNRGGGNGRGGRGRGGPMGRGGYGGGGSGGGGRGGFPSGGGGGGGQQRAGDWKCPNPTCENMNFSWRNECNQCKAPKPDGPGGGPGGSHMGGNYGDDRRGGRGGYDRGGYRGRGGDRGGFRGGRGGGDRGGFGPGKMDSRGEHRQDRRERLY
notes: 2 uM protein, as liquid granules (phase separation) or as solid aggregates (shaken at 700 rpm); also called FUS P525L granules; not shown: GFP
Turning to B2, in assay [2], the binding result is “binds”.

B3: in assay [3], the binding result is recorded as “binds”.

B4: HA-CCT2 mVLL (other)
chain: ASLSLAPVNIFKAGADEERAETARLTSFIGAIAIGDLVKSTLGPKGMDKILLSSGRDASLMVTNDGATILKNIGVDNPAAKVLVDMSRVQDDEVGDGTTSVTVLAAELLREAESLIAKKIHPQTIIAGWREATKAAREALLSSAVDHGSDEVKFRQDLMNIAGTTLSSKLLTHHKDHFTKLAVEAVLRLKGSGNLEAIHIIKKLGGSLADSYLDEGFLLDKKIGVNQPKRIENAKILIANTGMDTDKIKIFGSRVRVDSTAKVAEIEHAEKEKMKEKVERILKHGINCFINRQLIYNYPEQLFGAAGVMAIEHADFAGVERLALVTGGEIASTFDHPELVKLGSCKLIEEVMIGEDKLIHFSGVALGEACTIVLRGATQQILDEAERSLHDALCVLAQTVKDSRTVYGGGCSEMLMAHAVTQLANRTPGKEAVAMESYAKALRMLPTIIADNAGYDSADLVAQLRAAHSEGNTTAGLDMREGTIGDMAILGITESFQVKRQAAASAAEAAEVILRVDNIIKAAPRKRVPDHHPC
notes: also called CCT2 VLL mutated to alanine; not shown: N-terminal HA tag
As for B4, in assay [4], the binding result is “no binding”.

B5: GST-HA-CCT2 with VLL and VIL mutated (purified) (other)
chain: ASLSLAPVNIFKAGADEERAETARLTSFIGAIAIGDLVKSTLGPKGMDKILLSSGRDASLMVTNDGATILKNIGVDNPAAKVLVDMSRVQDDEVGDGTTSVTVLAAELLREAESLIAKKIHPQTIIAGWREATKAAREALLSSAVDHGSDEVKFRQDLMNIAGTTLSSKLLTHHKDHFTKLAVEAVLRLKGSGNLEAIHIIKKLGGSLADSYLDEGFLLDKKIGVNQPKRIENAKILIANTGMDTDKIKIFGSRVRVDSTAKVAEIEHAEKEKMKEKVERILKHGINCFINRQLIYNYPEQLFGAAGVMAIEHADFAGVERLALVTGGEIASTFDHPELVKLGSCKLIEEVMIGEDKLIHFSGVALGEACTIVLRGATQQILDEAERSLHDALCVLAQTVKDSRTVYGGGCSEMLMAHAVTQLANRTPGKEAVAMESYAKALRMLPTIIADNAGYDSADLVAQLRAAHSEGNTTAGLDMREGTIGDMAILGITESFQVKRQAAASAAEAAEAAARVDNIIKAAPRKRVPDHHPC
notes: also called GST-CCT2s; CCT2 with mutation of VLL and VIL; not shown: N-terminal GST and HA tags
Regarding B5, in assay [5], the binding result was “no binding”.

B6: T7-GABARAP (expressed in cells) (other, UniProt O95166 1-116, looked up)
chain: MKFVYKEEHPFEKRRSEGEKIRKKYPDRVPVIVEKAPKARIGDLDKKKYLVPSDLTVGQFYFLIRKRIHLRAEDALFFFVNNVIPPTSATMGQLYQEHHEEDFFLYIAYSDESVYG
notes: not shown: T7 tag
Take B6: in assay [6], the binding result is on record as “binds”.

B7: HA-CCT2 mVIL (other)
chain: ASLSLAPVNIFKAGADEERAETARLTSFIGAIAIGDLVKSTLGPKGMDKILLSSGRDASLMVTNDGATILKNIGVDNPAAKVLVDMSRVQDDEVGDGTTSVTVLAAELLREAESLIAKKIHPQTIIAGWREATKAAREALLSSAVDHGSDEVKFRQDLMNIAGTTLSSKLLTHHKDHFTKLAVEAVLRLKGSGNLEAIHIIKKLGGSLADSYLDEGFLLDKKIGVNQPKRIENAKILIANTGMDTDKIKIFGSRVRVDSTAKVAEIEHAEKEKMKEKVERILKHGINCFINRQLIYNYPEQLFGAAGVMAIEHADFAGVERLALVTGGEIASTFDHPELVKLGSCKLIEEVMIGEDKLIHFSGVALGEACTIVLRGATQQILDEAERSLHDALCVLAQTVKDSRTVYGGGCSEMLMAHAVTQLANRTPGKEAVAMESYAKALRMLPTIIADNAGYDSADLVAQLRAAHSEGNTTAGLDMREGTIGDMAILGITESFQVKRQVLLSAAEAAEAAARVDNIIKAAPRKRVPDHHPC
notes: also called CCT2 VIL mutated to alanine; not shown: N-terminal HA tag
As for B7, the binding result in assay [4] is recorded as “no binding”.
